# Laboratory results: patent US11472855, “RNA-binding protein” (Panitch Schwarze Belisario & Nadel LLP)
# Numbering of substitutions follows the chain as printed.
# T1: hPUF_MT(R3→R5, R4→R6)
# T1 chain: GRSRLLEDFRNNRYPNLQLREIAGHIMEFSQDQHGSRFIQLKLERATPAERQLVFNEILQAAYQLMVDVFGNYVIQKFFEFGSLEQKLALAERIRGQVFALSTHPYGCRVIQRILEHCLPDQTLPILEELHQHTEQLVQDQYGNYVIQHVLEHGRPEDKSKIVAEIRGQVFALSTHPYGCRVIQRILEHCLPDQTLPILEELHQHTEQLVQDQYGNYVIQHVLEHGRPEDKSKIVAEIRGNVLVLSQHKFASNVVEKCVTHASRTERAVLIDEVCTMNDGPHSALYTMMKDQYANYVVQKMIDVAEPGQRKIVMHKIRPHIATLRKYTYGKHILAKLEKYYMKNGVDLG
# T2: hPUF_MT(R7_E16R, R3→R5, R4→R6) (R7 repeat E16R)
# T2 chain: T1 chain with E256R
# T3: hPUF_MT(R7_S12N,E16Q, R3→R5, R4→R6) (R7 repeat S12N,E16Q)
# T3 chain: T1 chain with S252N, E256Q
# T4: hPUF_MT(R2_N12S,Q16R, R3→R5, R4→R6) (R2 repeat N12S,Q16R)
# T4 chain: T1 chain with N72S, Q76R
# T5: hPUF_MT(R2_N12S,Q16E, R3→R5, R4→R6) (R2 repeat N12S,Q16E)
# T5 chain: T1 chain with N72S, Q76E
# T6: hPUF_MT(1-2-5-6-5-6-5-6-5-6-7-8)
# T6 chain: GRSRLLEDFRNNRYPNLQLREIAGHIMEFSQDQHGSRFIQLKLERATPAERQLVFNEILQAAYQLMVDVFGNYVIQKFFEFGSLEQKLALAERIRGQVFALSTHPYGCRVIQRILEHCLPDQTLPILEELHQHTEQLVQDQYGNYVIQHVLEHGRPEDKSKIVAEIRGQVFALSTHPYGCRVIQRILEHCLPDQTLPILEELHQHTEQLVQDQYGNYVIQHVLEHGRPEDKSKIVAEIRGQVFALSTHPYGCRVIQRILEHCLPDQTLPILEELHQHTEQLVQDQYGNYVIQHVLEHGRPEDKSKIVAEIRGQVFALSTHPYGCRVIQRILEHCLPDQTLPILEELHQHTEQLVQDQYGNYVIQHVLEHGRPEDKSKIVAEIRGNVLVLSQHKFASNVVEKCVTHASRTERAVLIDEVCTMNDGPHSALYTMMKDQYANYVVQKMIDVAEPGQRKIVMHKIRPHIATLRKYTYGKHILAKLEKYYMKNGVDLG
# T7: hPUF_MT(R5:G_13R)3(R6:C_13Y)3
# T7 chain: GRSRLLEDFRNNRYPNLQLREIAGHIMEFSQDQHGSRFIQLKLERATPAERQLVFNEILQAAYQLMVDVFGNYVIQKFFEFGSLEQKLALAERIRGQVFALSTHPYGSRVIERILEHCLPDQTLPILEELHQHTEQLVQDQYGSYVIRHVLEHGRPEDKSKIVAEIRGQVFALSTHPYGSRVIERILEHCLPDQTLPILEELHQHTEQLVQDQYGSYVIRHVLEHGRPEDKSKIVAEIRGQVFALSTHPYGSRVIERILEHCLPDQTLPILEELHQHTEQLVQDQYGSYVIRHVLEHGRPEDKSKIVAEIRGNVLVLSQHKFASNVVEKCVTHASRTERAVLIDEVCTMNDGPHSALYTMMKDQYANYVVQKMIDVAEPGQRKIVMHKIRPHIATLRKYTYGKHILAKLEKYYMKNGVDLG
# T8: hPUF_MT(R8_N12S,Q16E, R3→R5, R4→R6) (R8 repeat N12S,Q16E)
# T8 chain: T1 chain with N295S, Q299E
# T9: hPUF_MT(R5:C_13R)3(R6:U_13Y)3
# T9 chain: T7 chain with E112R, S144N, R148Q, E184R, S216N, R220Q, E256R, S288N, R292Q
# B1: OTS-1754 (ssRNA)
# RNA: CCAGAAUUAUAUAUAUUCG
# B2: OTS-2033 (ssRNA)
# RNA: CCAGAAUUCUAUAUAUUCG
# B3: OTS-2024 (ssRNA)
# RNA: CCAGAAUUGUAUAGAUUCG
# B4: OTS-1924 (ssRNA)
# RNA: CCAGAAUUGUAUAUAUAUAUUCG
# B5: OTS-2023 (ssRNA)
# RNA: CCAGAAUUGUAUAAAUUCG
# B6: OTS-2007 (ssRNA)
# RNA: CCAGAAUUGCGCGCGUAUUCG
# B7: OTS-2034 (ssRNA)
# RNA: CCAGAAUGGUAUAUAUUCG
# B8: OTS-2025 (ssRNA)
# RNA: CCAGAAUUGUAUACAUUCG
# B9: OTS-2006 (ssRNA)
# RNA: CCAGAAUUGUCUCUCUAUUCG
# What was measured:
# [1] = tested on: hPUF_MT(R5:A_13R)3(R6:C_13R)3 Y13R in the R6:C repeats; experiment: EMSA; conditions: 13Y about 3 times greater
# [2] = tested on: hPUF_MT(R5:G_13R)(R5:G_13Y)2(R6:U_13Y)3 R13Y in the second and third R5 repeats (Homo sapiens); experiment: EMSA; conditions: FIG. 61; Arg>Tyr between G and U; 4 C; construct name in text appears misprinted as A/G version
# [3] = tested on: hPUF_MT(R5:A_13R)3(R6:G_13R)3 Y13R in the R6:G repeats; experiment: EMSA; conditions: 13Y at least 30 times greater
# [4] = tested on: hPUF_MT(R5:A_13R)3(R6:U_13R)3 Y13R in the R6 repeats; experiment: EMSA; conditions: 13Y at least 30 times greater
# [5] = tested on: hPUF_MT(R5:G_13R)3(R6:U_13R)3 Y13R in the R6:U repeats; experiment: EMSA; conditions: text inconsistent: number 2 greater but prints Tyr>Arg
# [6] = tested on: hPUF_MT(R5:C_13R)3(R6:U_13R)3 Y13R in the R6:U repeats; experiment: EMSA
# hPUF_MT(R3→R5, R4→R6) [7] = target: T1, hPUF_MT(R3→R5, R4→R6); experiment: EMSA; binds G exclusively at R7 position; conditions: label: Alexa680 at 5' and 3'
# [8] = target: T2, hPUF_MT(R7_E16R, R3→R5, R4→R6); experiment: EMSA; binds C and U; conditions: label: Alexa680 at 5' and 3'
# [9] = target: T3, hPUF_MT(R7_S12N,E16Q, R3→R5, R4→R6); experiment: EMSA; binds U exclusively; conditions: label: Alexa680 at 5' and 3'
# [10] = target: T4, hPUF_MT(R2_N12S,Q16R, R3→R5, R4→R6); experiment: EMSA; binds C exclusively; conditions: label: Alexa680 at 5' and 3'
# [11] = target: T5, hPUF_MT(R2_N12S,Q16E, R3→R5, R4→R6); experiment: EMSA; binds G exclusively; conditions: label: Alexa680 at 5' and 3'
# [12] = target: T6, hPUF_MT(1-2-5-6-5-6-5-6-5-6-7-8); experiment: EMSA; greater than MT(R3→R5, R4→R6); conditions: label: Alexa680 at 5' and 3'
# [13] = target: T7, hPUF_MT(R5:G_13R)3(R6:C_13Y)3; experiment: EMSA; conditions: label: Alexa680 at 5' and 3'
# [14] = target: T8, hPUF_MT(R8_N12S,Q16E, R3→R5, R4→R6); experiment: EMSA; binds G exclusively; conditions: label: Alexa680 at 5' and 3'
# hPUF_MT(R3→R5, R4→R6) [15] = target: T1, hPUF_MT(R3→R5, R4→R6); experiment: EMSA; binds U exclusively at R8 position; conditions: label: Alexa680 at 5' and 3'
# [16] = target: T9, hPUF_MT(R5:C_13R)3(R6:U_13Y)3; experiment: EMSA; conditions: label: Alexa680 at 5' and 3'
molecule,measurement,setting,value
CCAGAAUUGCACACAUAUUCG [OTS-2004 (Example 5-4)],binding signal (fold of 13Y protein),[1],0.33
"CCAGAAUUGUGUGUGUAUUCG [OTS-2004 (Example 5-6, GU repeat)]",binding signal (fold weaker than (R5:G 13R)3(R6:U 13Y)3),[2],30
CCAGAAUUGGAGAGAUAUUCG [OTS-2008],binding signal (fold of 13Y protein),[3],< 0.033
CCAGAAUUGUAUAUAUAUUCG [OTS-1844],binding signal (fold of 13Y protein),[4],< 0.033
CCAGAAUUGUGUGUGUAUUCG [OTS-2004 (Example 5-6)],binding signal (fold of R6 13Y protein),[5],3
CCAGAAUUGUCUCUCUAUUCG [OTS-2006],binding signal (fold of 13Y protein),[6],0.1
B1,binding result,"hPUF_MT(R3→R5, R4→R6) [7]",no binding
B2,binding result,[8],binds
same,binding result,[9],no binding
same,binding result,"hPUF_MT(R3→R5, R4→R6) [7]",no binding
B3,binding result,[10],no binding
same,binding result,[11],binds
B4,binding result,[12],binds
B5,binding result,[10],no binding
same,binding result,[11],no binding
B6,binding result,[13],binds
B7,binding result,[14],binds
same,binding result,"hPUF_MT(R3→R5, R4→R6) [15]",no binding
B8,binding result,[10],binds
same,binding result,[11],no binding
B9,binding result,[16],binds
